Results from patent US20050106100.

How the values were obtained:
[1] = target: T1, Ac-Inp-Cit-G˜Hphe-LA-Ahxh-Hynic (not fully specified)
T1 chain: XXGXLA

[2] = target: T2, Ac-NGlu-PLG˜Hphe-YL-Ahxh-Ac[C14] (not fully specified)
T2 chain: XPLGXYL

[3] = target: T3, Ac-P-Cha-G˜Hphe-Cit-L-Ahxh-Ac[C14] (not fully specified)
T3 chain: PXGXXL

[4] = target: T4, Ac-P-Cit-Abu˜LTA-Ahxh-Hynic (not fully specified)
T4 chain: PXXLTA

[5] = target: T5, Ac-P-Cit-G˜Abu-LA-Ahxh-Hynic (not fully specified)
T5 chain: PXGXLA

[6] = target: T6, Ac-P-Cit-G˜Aib-LA-Ahxh-Hynic (not fully specified)
T6 chain: PXGXLA

[7] = target: T7, Ac-P-Cit-G˜Hphe-Cit-L-Ahxh-Hynic (not fully specified)
T7 chain: PXGXXL

[8] = target: T8, Ac-P-Cit-G˜Hphe-L-Ahxh-Hynic (not fully specified)
T8 chain: PXGXL

[9] = target: T9, Ac-P-Cit-G˜Igl-LA-Ahxh-Hynic (not fully specified)
T9 chain: PXGXLA

[10] = target: T10, Ac-P-Cit-G˜S(OBn)-LA-Ahxh-Ac[C14] (not fully specified)
T10 chain: PXGSLA

[11] = target: T11, Ac-P-Cit-G˜Tle-LA-Ahxh-Hynic (not fully specified)
T11 chain: PXGXLA

[12] = target: T12, Ac-PL-NLys˜Ahp-YL-Ahxh-Ac[C14] (not fully specified)
T12 chain: PLXXYL

[13] = target: T13, Ac-PL-NLys˜Hphe-L-Ahxh-Ac[C14] (not fully specified)
T13 chain: PLXXL

[14] = target: T14, Ac-PLG-Hphe-OL-Ahxh-Ac[C14]
T14 chain: PLGXXL

[15] = target: T15, Ac-PLG˜Ahp-OL-Ahxh-Ac[C14] (not fully specified)
T15 chain: PLGXXL

[16] = target: T16, Ac-PLG˜Cit-LA-Ahxh-Ac[C14] (not fully specified)
T16 chain: PLGXLA

[17] = target: T17, Ac-PLG˜Hphe-Cit-L-Ahxh-Hynic (not fully specified)
T17 chain: PLGXXL

[18] = target: T18, Ac-PLG˜Hphe-KL-Ahxh-Ac[C14] (not fully specified)
T18 chain: PLGXKL

[19] = target: T19, Ac-PLG˜Hphe-OLA-Ahxh-Hynic
T19 chain: PLGXXLA

[20] = target: T20, Ac-PLG˜Hphe-OLEE-Ahx-Hynic
T20 chain: PLGXXLEE

[21] = target: T21, Ac-PLG˜Hphe-OLR-Ahxh-Hynic
T21 chain: PLGXXLR

[22] = target: T22, Ac-PLG˜Hphe-RL-Ahxh-Hynic
T22 chain: PLGXRL

[23] = target: T23, Ac-PLG˜Hphe-RLA-Ambh-Hynic
T23 chain: PLGXRLA

[24] = target: T24, Ac-PLG˜Hphe-YLR-Ahxh-Hynic
T24 chain: PLGXYLR

[25] = target: T25, Ac-PLG˜L-Cha-Ahxh-Hynic
T25 chain: PLGLX

[26] = target: T26, Ac-PLG˜L-Pya-L-Ahxh-Ac[C14] (not fully specified)
T26 chain: PLGLXL

[27] = target: T27, Ac-PLG˜LAL-Ahxh-Hynic
T27 chain: PLGLAL

[28] = target: T28, Ac-PLG˜LL-Ahxh-Ac[C14] (not fully specified)
T28 chain: PLGLL

[29] = target: T29, Ac-PLG˜LL-Ahxh-Hynic
T29 chain: PLGLL

[30] = target: T30, Ac-PLG˜LL-Ambh-Hynic
T30 chain: PLGLL

[31] = target: T31, Ac-PLG˜LOL-Ahxh-Hynic (not fully specified)
T31 chain: PLGLXL

[32] = target: T32, Ac-PLG˜LR-Ahxh-Hynic (not fully specified)
T32 chain: PLGLR

[33] = target: T33, Ac-PLG˜LRL-Ahxh-Hynic (not fully specified)
T33 chain: PLGLRL

[34] = target: T34, Ac-PLG˜LYT-Ahxh-Ac[C14] (not fully specified)
T34 chain: PLGLYT

[35] = target: T35, Ac-PLG˜LYT-Ahxh-Hynic (not fully specified)
T35 chain: PLGLYT

[36] = target: T36, Ac-PLG˜Pabu-Cit-L-Ahxh-Ac[C14] (not fully specified)
T36 chain: PLGXXL

[37] = target: T37, Ac-PLG˜S(OBn)-LL-Ahxh-Hynic
T37 chain: PLGSLL

[38] = target: T38, Ac-POG˜Hphe-L-Ambh-Hynic
T38 chain: PXGXL

[39] = target: T39, Ac-POG˜Hphe-LQ-Ahxh-Hynic
T39 chain: PXGXLQ

[40] = target: T40, Ac-POG˜Hphe-LTR-Ahxh-Ac[C14]
T40 chain: PXGXLTR

[41] = target: T41, Ac-POG˜Hphe-LTR-Ahxh-Hynic
T41 chain: PXGXLTR

[42] = target: T42, Ac-POG˜Hphe-Smc-T-Ahxh-Hynic
T42 chain: PXGXXT

[43] = target: T43, Ac-PRG˜Hphe-Dab-A-Ahxh-Hynic
T43 chain: PRGXXA

[44] = target: T44, Ac-PRG˜Hphe-LA-Ahxh-Hynic
T44 chain: PRGXLA

[45] = target: T45, Ac-PRQ˜IT-Ahxh-Hynic
T45 chain: PRQIT

[46] = target: T46, Ac-PRR˜LTA-Ahxh-Hynic
T46 chain: PRRLTA

[47] = target: T47, Ac-VRW˜LLA-Ahxh-Hynic
T47 chain: VRWLLA

[48] = target: T48, Ac-VRW˜LTA-Ahxh-Hynic (not fully specified)
T48 chain: VRWLTA

[49] = target: T49, H-NLys-PLG˜LYT-Ahxh-Hynic (not fully specified)
T49 chain: XPLGLYT

[50] = target: T50, H-γ-DGlu-PLG-LYT-Ahxh-Hynic (not fully specified)
T50 chain: EPLGLYT

[51] = target: T51, Hynic-ff-Ahx-PLG˜Hphe-OLEE-OH
T51 chain: FFXPLGXXLEE

[52] = target: T52, Piv-PLG˜LYT-Ahxh-Hynic
T52 chain: PLGLYT

[53] = target: T53, Suc-PLG˜LYT-Ahxh-Hynic
T53 chain: PLGLYT

B1: human MMP-9 (protein)
chain: MRTPRCGVPDLGRFQTFEGDLKWHHHNITYWIQNYSEDLPRAVIDDAFARAFALWSAVTPLTFTRVYSRDADIVIQFGVAEHGDGYPFDGKDGLLAHAFPPGPGIQGDAHFDDDELWSLGKGVVVPTRFGNADGAACHFPFIFEGRSYSACTTDGRSDGLPWCSTTANYDTDDRFGFCPSERLYTQDGNADGKPCQFPFIFQGQSYSACTTDGRSDGYRWCATTANYDRDKLFGFCPTRADSTVMGGNSAGELCVFPFTFLGKEYSTCTSEGRGDGRLWCATTSNFDSDKKWGFCPDQGYSLFLVAAHEFGHALGLDHSSVPEALMYPMYRFTEGPPLHKDDVNGIRHLYGPRPEPEPRPPTTTTPQPTAPPTVCPTGPPTVHPSERPTAGPTGPPSAGPTGPPTAGPSTATTVPLSPVDDACNVNIFDAIAEIGNQLYLFKDGKYWRFSEGRGSRPQGPFLIADKWPALPRKLDSVFEERLSKKLFFFSGRQVWVYTGASVLGPRRLDKLGLGADVAQVTGALRSGRGKMLLFSGRRLWRFDVKAQMVDPRSASEVDRMFPGVPLDTHDVFQYREKAYFCQDRFYWRVSSRSELNQVDQVGYVTYDILQCPED
With B1 the Kcat/Km [1] was 1650 M⁻¹ s⁻¹, the Kcat/Km [2] was 213000 M⁻¹ s⁻¹ and the Kcat/Km [3] was > 500000 M⁻¹ s⁻¹. For the same protein, the Kcat/Km [4] was 77800 M⁻¹ s⁻¹, the Kcat/Km [5] was 20600 M⁻¹ s⁻¹ and the Kcat/Km [6] was 772 M⁻¹ s⁻¹. The Kcat/Km [7] was 11400 M⁻¹ s⁻¹, the Kcat/Km [8] was 33300 M⁻¹ s⁻¹ and the Kcat/Km [9] was 0 M⁻¹ s⁻¹. For the same protein, the Kcat/Km [10] was > 500000 M⁻¹ s⁻¹, the Kcat/Km [11] was 0 M⁻¹ s⁻¹ and the Kcat/Km [12] was 0 M⁻¹ s⁻¹. For the same protein, the Kcat/Km [13] was 289000 M⁻¹ s⁻¹, the Kcat/Km [14] was 77500 M⁻¹ s⁻¹ and the Kcat/Km [15] was 9340 M⁻¹ s⁻¹. For the same protein, the Kcat/Km [16] was 34000 M⁻¹ s⁻¹, the Kcat/Km [17] was 171000 M⁻¹ s⁻¹ and the Kcat/Km [18] was 120000 M⁻¹ s⁻¹. The Kcat/Km [19] was 14100 M⁻¹ s⁻¹, the Kcat/Km [20] was 1990 M⁻¹ s⁻¹ and the Kcat/Km [21] was 22100 M⁻¹ s⁻¹. The Kcat/Km [22] was 168000 M⁻¹ s⁻¹, the Kcat/Km [23] was 4550 M⁻¹ s⁻¹ and the Kcat/Km [24] was 243000 M⁻¹ s⁻¹. For the same protein, the Kcat/Km [25] was 147000 M⁻¹ s⁻¹, the Kcat/Km [26] was 162000 M⁻¹ s⁻¹ and the Kcat/Km [27] was 7140 M⁻¹ s⁻¹. For the same protein, the Kcat/Km [28] was 134000 M⁻¹ s⁻¹, the Kcat/Km [29] was 218000 M⁻¹ s⁻¹ and the Kcat/Km [30] was 36300 M⁻¹ s⁻¹. It also gave a Kcat/Km [31] of 39400 M⁻¹ s⁻¹, a Kcat/Km [32] of 143000 M⁻¹ s⁻¹ and a Kcat/Km [33] of 167000 M⁻¹ s⁻¹. The Kcat/Km [34] was > 500000 M⁻¹ s⁻¹, the Kcat/Km [35] was 223000 M⁻¹ s⁻¹ and the Kcat/Km [36] was 0 M⁻¹ s⁻¹. The Kcat/Km [37] was 187000 M⁻¹ s⁻¹, the Kcat/Km [38] was 22000 M⁻¹ s⁻¹ and the Kcat/Km [39] was 84800 M⁻¹ s⁻¹. The Kcat/Km [40] was 246000 M⁻¹ s⁻¹, the Kcat/Km [41] was 105000 M⁻¹ s⁻¹ and the Kcat/Km [42] was 85400 M⁻¹ s⁻¹. The Kcat/Km [43] was 474000 M⁻¹ s⁻¹, the Kcat/Km [44] was > 500000 M⁻¹ s⁻¹ and the Kcat/Km [45] was 1700 M⁻¹ s⁻¹. It also gave a Kcat/Km [46] of 33500 M⁻¹ s⁻¹, a Kcat/Km [47] of 72200 M⁻¹ s⁻¹ and a Kcat/Km [48] of 29900 M⁻¹ s⁻¹. For the same protein, the Kcat/Km [49] was 149000 M⁻¹ s⁻¹, the Kcat/Km [50] was 59400 M⁻¹ s⁻¹ and the Kcat/Km [51] was 6680 M⁻¹ s⁻¹. The Kcat/Km [52] was 281000 M⁻¹ s⁻¹ and the Kcat/Km [53] was 81000 M⁻¹ s⁻¹.

B2: MMP-2 (protein)
chain: APSPIIKFPGDVAPKTDKELAVQYLNTFYGCPKESCNLFVLKDTLKKMQKFFGLPQTGDLDQNTIETMRKPRCGNPDVANYNFFPRKPKWDKNQITYRIIGYTPDLDPETVDDAFARAFQVWSDVTPLRFSRIHDGEADIMINFGRWEHGDGYPFDGKDGLLAHAFAPGTGVGGDSHFDDDELWTLGEGQVVRVKYGNADGEYCKFPFLFNGKEYNSCTDTGRSDGFLWCSTTYNFEKDGKYGFCPHEALFTMGGNAEGQPCKFPFRFQGTSYDSCTTEGRTDGYRWCGTTEDYDRDKKYGFCPETAMSTVGGNSEGAPCVFPFTFLGNKYESCTSAGRSDGKMWCATTANYDDDRKWGFCPDQGYSLFLVAAHEFGHAMGLEHSQDPGALMAPIYTYTKNFRLSQDDIKGIQELYGASPDIDLGTGPTPTLGPVTPEICKQDIVFDGIAQIRGEIFFFKDRFIWRTVTPRDKPMGPLLVATFWPELPEKIDAVYEAPQEEKAVFFAGNEYWIYSASTLERGYPKPLTSLGLPPDVQRVDAAFNWSKNKKTYIFAGDKFWRYNEVKKKMDPGFPKLIADAWNAIPDNLDAVVDLQGGGHSYFFKGAYYLKLENQSLKSVKFGSIKSDWLGC
For B2, the Kcat/Km [1] was 4580 M⁻¹ s⁻¹, the Kcat/Km [2] was 351000 M⁻¹ s⁻¹ and the Kcat/Km [3] was 22600 M⁻¹ s⁻¹. For the same protein, the Kcat/Km [4] was 55400 M⁻¹ s⁻¹, the Kcat/Km [5] was 17600 M⁻¹ s⁻¹ and the Kcat/Km [6] was 0 M⁻¹ s⁻¹. The Kcat/Km [7] was 42600 M⁻¹ s⁻¹, the Kcat/Km [8] was 161000 M⁻¹ s⁻¹ and the Kcat/Km [9] was 189 M⁻¹ s⁻¹. The Kcat/Km [10] was > 500000 M⁻¹ s⁻¹, the Kcat/Km [11] was 164 M⁻¹ s⁻¹ and the Kcat/Km [12] was 0 M⁻¹ s⁻¹. It also gave a Kcat/Km [13] of 465000 M⁻¹ s⁻¹, a Kcat/Km [14] of 53800 M⁻¹ s⁻¹ and a Kcat/Km [15] of 4970 M⁻¹ s⁻¹. The Kcat/Km [16] was 16300 M⁻¹ s⁻¹, the Kcat/Km [17] was 157000 M⁻¹ s⁻¹ and the Kcat/Km [18] was 103000 M⁻¹ s⁻¹. It also gave a Kcat/Km [19] of 29500 M⁻¹ s⁻¹, a Kcat/Km [20] of 8020 M⁻¹ s⁻¹ and a Kcat/Km [21] of 46600 M⁻¹ s⁻¹. For the same protein, the Kcat/Km [22] was 242000 M⁻¹ s⁻¹, the Kcat/Km [23] was 197 M⁻¹ s⁻¹ and the Kcat/Km [24] was 364000 M⁻¹ s⁻¹. It also gave a Kcat/Km [25] of 120000 M⁻¹ s⁻¹, a Kcat/Km [26] of 93000 M⁻¹ s⁻¹ and a Kcat/Km [27] of 4380 M⁻¹ s⁻¹. For the same protein, the Kcat/Km [28] was 148000 M⁻¹ s⁻¹, the Kcat/Km [29] was > 250000 M⁻¹ s⁻¹ and the Kcat/Km [30] was 33600 M⁻¹ s⁻¹. The Kcat/Km [31] was 91400 M⁻¹ s⁻¹, the Kcat/Km [32] was 162000 M⁻¹ s⁻¹ and the Kcat/Km [33] was 182000 M⁻¹ s⁻¹. The Kcat/Km [34] was 413000 M⁻¹ s⁻¹, the Kcat/Km [35] was 186000 M⁻¹ s⁻¹ and the Kcat/Km [36] was 0 M⁻¹ s⁻¹. For the same protein, the Kcat/Km [37] was 180000 M⁻¹ s⁻¹, the Kcat/Km [38] was 77700 M⁻¹ s⁻¹ and the Kcat/Km [39] was > 250000 M⁻¹ s⁻¹. The Kcat/Km [40] was > 500000 M⁻¹ s⁻¹, the Kcat/Km [41] was > 500000 M⁻¹ s⁻¹ and the Kcat/Km [42] was > 500000 M⁻¹ s⁻¹. The Kcat/Km [43] was 591000 M⁻¹ s⁻¹, the Kcat/Km [44] was > 500000 M⁻¹ s⁻¹ and the Kcat/Km [45] was 898 M⁻¹ s⁻¹. For the same protein, the Kcat/Km [46] was 10100 M⁻¹ s⁻¹, the Kcat/Km [47] was 43000 M⁻¹ s⁻¹ and the Kcat/Km [48] was 14400 M⁻¹ s⁻¹. The Kcat/Km [49] was 85100 M⁻¹ s⁻¹, the Kcat/Km [50] was 153000 M⁻¹ s⁻¹ and the Kcat/Km [51] was 81600 M⁻¹ s⁻¹. For the same protein, the Kcat/Km [52] was 569000 M⁻¹ s⁻¹ and the Kcat/Km [53] was 141000 M⁻¹ s⁻¹.
